{
  "source": "patent CN113621065A",
  "about": "(WUHAN HSA BIND BIOTECHNOLOGY CO LTD, dated 2021)",
  "key": {"[1]": {"target": "T1, 人4-1BB胞外区蛋白(hu4-1BB ECD) (human, UniProt Q07011 24-186)", "T1 construct": "extracellular domain; also called 人4-1BB蛋白; 抗原4-1BB", "assay": "single-phage ELISA, 100 ng/well coated 4-1BB"}, "[2]": {"target": "T2, 阴性对照蛋白BSA (UniProt P02769 25-607)", "T2 construct": "also called 对照BSA", "T2 sequence (P02769 25-607 limits assumed)": "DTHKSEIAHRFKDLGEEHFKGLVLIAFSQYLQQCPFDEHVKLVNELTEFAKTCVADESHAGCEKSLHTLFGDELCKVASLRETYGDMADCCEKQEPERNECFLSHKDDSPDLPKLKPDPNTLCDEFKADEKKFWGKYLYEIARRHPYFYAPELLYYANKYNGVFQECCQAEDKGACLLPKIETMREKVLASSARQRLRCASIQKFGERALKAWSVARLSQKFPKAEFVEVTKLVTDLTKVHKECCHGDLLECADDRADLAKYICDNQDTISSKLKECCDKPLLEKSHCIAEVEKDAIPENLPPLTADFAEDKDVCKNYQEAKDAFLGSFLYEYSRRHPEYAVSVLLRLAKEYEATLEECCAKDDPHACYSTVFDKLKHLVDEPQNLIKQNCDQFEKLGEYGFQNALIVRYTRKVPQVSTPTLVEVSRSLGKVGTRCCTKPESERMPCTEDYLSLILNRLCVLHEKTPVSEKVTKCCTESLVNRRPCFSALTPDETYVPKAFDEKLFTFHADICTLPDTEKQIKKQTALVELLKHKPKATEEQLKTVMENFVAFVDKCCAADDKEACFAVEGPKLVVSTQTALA", "assay": "single-phage ELISA, 100 ng/well coated protein"}},
  "data": [
    {"binder": "抗体(scFv)8F5 (scFv) scFv: QVQLVQSGAEVKKPGASVKVSCKPSGYTFTSHYIHWVRQAPGQGLEWMGWINPNSGGTNYAQKFQGRVTMTRDTSISTAYMELSRLRSDDTAVYYCARDGGGMDVWGKGTMVTVSSGGGGSGGGGSGGGGSQSALTQPASVSGSPGQSITISCTGTSSDVGGYDFVSWYQHHPGKAPKLMIYGVANRPSGVSNRFSGSKSGNTASLTISGLQAEDDADYYCSSYSSTSTRYVFGTGTKVTVLG", "values": [
      {"measurement": "binding result", "setting": "[1]", "value": "binds"},
      {"measurement": "binding result", "setting": "[2]", "value": "no binding"}
    ]}
  ]
}
